Measurements taken from PMC10786891, “Massively parallel profiling of RNA-targeting CRISPR-Cas13d”.

T1: EsCas13d, nuclease-dead (Eubacterium siraeum, UniProt B0MS50, R295A;H300A;R849A;H854A)
T1 sequence: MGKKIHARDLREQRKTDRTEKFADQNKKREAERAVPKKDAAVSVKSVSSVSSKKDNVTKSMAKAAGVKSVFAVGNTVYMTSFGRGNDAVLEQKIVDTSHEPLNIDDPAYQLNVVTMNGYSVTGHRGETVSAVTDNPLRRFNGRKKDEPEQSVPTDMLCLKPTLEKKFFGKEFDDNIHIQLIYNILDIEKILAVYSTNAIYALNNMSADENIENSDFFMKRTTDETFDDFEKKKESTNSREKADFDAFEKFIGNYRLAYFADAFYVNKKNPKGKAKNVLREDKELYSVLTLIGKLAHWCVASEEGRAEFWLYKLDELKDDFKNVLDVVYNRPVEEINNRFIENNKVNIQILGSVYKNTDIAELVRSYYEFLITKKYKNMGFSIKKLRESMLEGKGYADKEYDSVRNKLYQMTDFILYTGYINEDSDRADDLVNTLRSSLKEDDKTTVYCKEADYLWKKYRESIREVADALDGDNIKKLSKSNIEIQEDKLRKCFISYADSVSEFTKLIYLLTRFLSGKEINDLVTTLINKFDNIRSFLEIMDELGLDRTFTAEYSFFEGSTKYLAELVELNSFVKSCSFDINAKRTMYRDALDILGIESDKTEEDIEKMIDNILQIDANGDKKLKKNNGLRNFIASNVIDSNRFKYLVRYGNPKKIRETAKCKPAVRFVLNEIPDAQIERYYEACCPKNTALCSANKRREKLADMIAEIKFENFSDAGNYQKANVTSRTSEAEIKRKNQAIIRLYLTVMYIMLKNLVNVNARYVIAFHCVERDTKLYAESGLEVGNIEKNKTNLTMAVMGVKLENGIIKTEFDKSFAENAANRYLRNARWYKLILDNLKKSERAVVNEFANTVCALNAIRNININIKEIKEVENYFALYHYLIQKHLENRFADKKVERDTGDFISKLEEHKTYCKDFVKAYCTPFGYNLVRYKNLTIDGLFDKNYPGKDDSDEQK


target: T1, EsCas13d, nuclease-dead; test: crRNA (strand 1, pre-loaded); Mg2+; 40 mM Tris-HCl pH 7.5, 150 mM NaCl, 6 mM MgCl2, 1 mM DTT, 0.1% Tween-20, 0.2 mg/ml BSA; 25 C; 10 min per concentration, then washed; conditions: tags: His6-TwinStrep-SUMO cleaved; N-terminal SNAP kept (SNAP-Surface 488); label: 3' end held by stalled T7 RNA polymerase

Row | Binder | Kd [nM]
1 | target 3 G4A,U8G (mixed) RNA 1: CACCCGUGCAAAAUUGCAGGGGUCUAAAACGACCUGAAUAUUUCAGAUCAAA RNA 2: GGGAAUGGAUCCACAUCUACGAAUUCGUUUUUGAUCUGAAAUAGUCAAGUCUGCAGAUCGGAAGAGCACACGU | 77.5 ± 21
2 | target 3 insA 3' of 14,insU 3' of 3 (mixed) RNA 1: CACCCGUGCAAAAUUGCAGGGGUCUAAAACGACCUGAAUAUUUCAGAUCAAA RNA 2: GGGAAUGGAUCCACAUCUACGAAUUCGUUUUUGAUCUGAAAAUAUUCAGGUUCUGCAGAUCGGAAGAGCACACGU | 90.5 ± 40.5
3 | target 3 A12U,A18G (mixed) RNA 1: CACCCGUGCAAAAUUGCAGGGGUCUAAAACGACCUGAAUAUUUCAGAUCAAA RNA 2: GGGAAUGGAUCCACAUCUACGAAUUCGUUUUUGGUCUGAUAUAUUCAGGUCUGCAGAUCGGAAGAGCACACGU | 97 ± 34
4 | target 3 A12G,U22G (mixed) RNA 1: CACCCGUGCAAAAUUGCAGGGGUCUAAAACGACCUGAAUAUUUCAGAUCAAA RNA 2: GGGAAUGGAUCCACAUCUACGAAUUCGUUGUUGAUCUGAGAUAUUCAGGUCUGCAGAUCGGAAGAGCACACGU | 86 ± 20
5 | target 3 insC 3' of 22,insC 3' of 3 (mixed) RNA 1: CACCCGUGCAAAAUUGCAGGGGUCUAAAACGACCUGAAUAUUUCAGAUCAAA RNA 2: GGGAAUGGAUCCACAUCUACGAAUUCGUUUCUUGAUCUGAAAUAUUCAGGCUCUGCAGAUCGGAAGAGCACACGU | 33 ± 4.5
6 | target 3 insC 3' of 5,insG 3' of 2 (mixed) RNA 1: CACCCGUGCAAAAUUGCAGGGGUCUAAAACGACCUGAAUAUUUCAGAUCAAA RNA 2: GGGAAUGGAUCCACAUCUACGAAUUCGUUUUUGAUCUGAAAUAUUCACGGUGCUGCAGAUCGGAAGAGCACACGU | 29 ± 2.8
7 | target 3 insA 3' of 22,insA 3' of 7 (mixed) RNA 1: CACCCGUGCAAAAUUGCAGGGGUCUAAAACGACCUGAAUAUUUCAGAUCAAA RNA 2: GGGAAUGGAUCCACAUCUACGAAUUCGUUUAUUGAUCUGAAAUAUUACAGGUCUGCAGAUCGGAAGAGCACACGU | 65 ± 21.5
8 | target 3 G4A,U8C (mixed) RNA 1: CACCCGUGCAAAAUUGCAGGGGUCUAAAACGACCUGAAUAUUUCAGAUCAAA RNA 2: GGGAAUGGAUCCACAUCUACGAAUUCGUUUUUGAUCUGAAAUACUCAAGUCUGCAGAUCGGAAGAGCACACGU | 52.8 ± 5.6
9 | target 3 U2C,A5U (mixed) RNA 1: CACCCGUGCAAAAUUGCAGGGGUCUAAAACGACCUGAAUAUUUCAGAUCAAA RNA 2: GGGAAUGGAUCCACAUCUACGAAUUCGUUUUUGAUCUGAAAUAUUCUGGCCUGCAGAUCGGAAGAGCACACGU | 36.4 ± 3.4
10 | target 3 insA 3' of 6,insU 3' of 5 (mixed) RNA 1: CACCCGUGCAAAAUUGCAGGGGUCUAAAACGACCUGAAUAUUUCAGAUCAAA RNA 2: GGGAAUGGAUCCACAUCUACGAAUUCGUUUUUGAUCUGAAAUAUUCAAUGGUCUGCAGAUCGGAAGAGCACACGU | 4 ± 0.27
11 | target 3 A5G,A18G (mixed) RNA 1: CACCCGUGCAAAAUUGCAGGGGUCUAAAACGACCUGAAUAUUUCAGAUCAAA RNA 2: GGGAAUGGAUCCACAUCUACGAAUUCGUUUUUGGUCUGAAAUAUUCGGGUCUGCAGAUCGGAAGAGCACACGU | 30.6 ± 4.5
12 | target 3 G3U,A5G (mixed) RNA 1: CACCCGUGCAAAAUUGCAGGGGUCUAAAACGACCUGAAUAUUUCAGAUCAAA RNA 2: GGGAAUGGAUCCACAUCUACGAAUUCGUUUUUGAUCUGAAAUAUUCGGUUCUGCAGAUCGGAAGAGCACACGU | 25.4 ± 2.4
13 | target 3 insC 3' of 18,insA 3' of 17 (mixed) RNA 1: CACCCGUGCAAAAUUGCAGGGGUCUAAAACGACCUGAAUAUUUCAGAUCAAA RNA 2: GGGAAUGGAUCCACAUCUACGAAUUCGUUUUUGACUACUGAAAUAUUCAGGUCUGCAGAUCGGAAGAGCACACGU | 34.5 ± 11
14 | target 3 insC 3' of 3,insG 3' of 2 (mixed) RNA 1: CACCCGUGCAAAAUUGCAGGGGUCUAAAACGACCUGAAUAUUUCAGAUCAAA RNA 2: GGGAAUGGAUCCACAUCUACGAAUUCGUUUUUGAUCUGAAAUAUUCAGGCUGCUGCAGAUCGGAAGAGCACACGU | 10.6 ± 1.25
15 | target 3 insG 3' of 11,insC 3' of 3 (mixed) RNA 1: CACCCGUGCAAAAUUGCAGGGGUCUAAAACGACCUGAAUAUUUCAGAUCAAA RNA 2: GGGAAUGGAUCCACAUCUACGAAUUCGUUUUUGAUCUGAAAGUAUUCAGGCUCUGCAGAUCGGAAGAGCACACGU | 76 ± 21.5
16 | target 3 insG 3' of 8,insC 3' of 3 (mixed) RNA 1: CACCCGUGCAAAAUUGCAGGGGUCUAAAACGACCUGAAUAUUUCAGAUCAAA RNA 2: GGGAAUGGAUCCACAUCUACGAAUUCGUUUUUGAUCUGAAAUAUGUCAGGCUCUGCAGAUCGGAAGAGCACACGU | 38.8 ± 5.05
17 | target 3 U7A,A13G (mixed) RNA 1: CACCCGUGCAAAAUUGCAGGGGUCUAAAACGACCUGAAUAUUUCAGAUCAAA RNA 2: GGGAAUGGAUCCACAUCUACGAAUUCGUUUUUGAUCUGGAAUAUACAGGUCUGCAGAUCGGAAGAGCACACGU | 100 ± 50
18 | target 3 insU 3' of 5,insA 3' of 3 (mixed) RNA 1: CACCCGUGCAAAAUUGCAGGGGUCUAAAACGACCUGAAUAUUUCAGAUCAAA RNA 2: GGGAAUGGAUCCACAUCUACGAAUUCGUUUUUGAUCUGAAAUAUUCAUGGAUCUGCAGAUCGGAAGAGCACACGU | 6.39 ± 0.52
19 | target 3 insA 3' of 3,insG 3' of 2 (mixed) RNA 1: CACCCGUGCAAAAUUGCAGGGGUCUAAAACGACCUGAAUAUUUCAGAUCAAA RNA 2: GGGAAUGGAUCCACAUCUACGAAUUCGUUUUUGAUCUGAAAUAUUCAGGAUGCUGCAGAUCGGAAGAGCACACGU | 24.6 ± 3.4
20 | target 3 insA 3' of 2,insA 3' of 1 (mixed) RNA 1: CACCCGUGCAAAAUUGCAGGGGUCUAAAACGACCUGAAUAUUUCAGAUCAAA RNA 2: GGGAAUGGAUCCACAUCUACGAAUUCGUUUUUGAUCUGAAAUAUUCAGGUACAUGCAGAUCGGAAGAGCACACGU | 34.3 ± 4.25
21 | target 3 insG 3' of 8,insC 3' of 8 (mixed) RNA 1: CACCCGUGCAAAAUUGCAGGGGUCUAAAACGACCUGAAUAUUUCAGAUCAAA RNA 2: GGGAAUGGAUCCACAUCUACGAAUUCGUUUUUGAUCUGAAAUAUGCUCAGGUCUGCAGAUCGGAAGAGCACACGU | 58 ± 8.5
22 | target 3 C6U,U10C (mixed) RNA 1: CACCCGUGCAAAAUUGCAGGGGUCUAAAACGACCUGAAUAUUUCAGAUCAAA RNA 2: GGGAAUGGAUCCACAUCUACGAAUUCGUUUUUGAUCUGAAACAUUUAGGUCUGCAGAUCGGAAGAGCACACGU | 88 ± 11.5
23 | target 3 insA 3' of 21,insA 3' of 6 (mixed) RNA 1: CACCCGUGCAAAAUUGCAGGGGUCUAAAACGACCUGAAUAUUUCAGAUCAAA RNA 2: GGGAAUGGAUCCACAUCUACGAAUUCGUUUUAUGAUCUGAAAUAUUCAAGGUCUGCAGAUCGGAAGAGCACACGU | 38.4 ± 4.75
24 | target 3 insA 3' of 8,insC 3' of 8 (mixed) RNA 1: CACCCGUGCAAAAUUGCAGGGGUCUAAAACGACCUGAAUAUUUCAGAUCAAA RNA 2: GGGAAUGGAUCCACAUCUACGAAUUCGUUUUUGAUCUGAAAUAUACUCAGGUCUGCAGAUCGGAAGAGCACACGU | 63 ± 10
25 | target 1 A1U,C6G (mixed) RNA 1: CACCCGUGCAAAAAUGCAGGGGUCUAAAACUGAGCGGAUAACCUCUCUAUGG RNA 2: GGGAAUGGAUCCACAUCUACGAAUUCGUACCAUAGAGAGGUUAUCGGCUCUCCGAGAUCGGAAGAGCACACGU | 12.1 ± 0.9
26 | target 1 A9C,U11G (mixed) RNA 1: CACCCGUGCAAAAAUGCAGGGGUCUAAAACUGAGCGGAUAACCUCUCUAUGG RNA 2: GGGAAUGGAUCCACAUCUACGAAUUCGUACCAUAGAGAGGGUCUCCGCUCACCGAGAUCGGAAGAGCACACGU | 44 ± 6
27 | target 1 A1U,C4U (mixed) RNA 1: CACCCGUGCAAAAAUGCAGGGGUCUAAAACUGAGCGGAUAACCUCUCUAUGG RNA 2: GGGAAUGGAUCCACAUCUACGAAUUCGUACCAUAGAGAGGUUAUCCGUUCUCCGAGAUCGGAAGAGCACACGU | 13 ± 1.7
28 | target 1 U3G,C6U (mixed) RNA 1: CACCCGUGCAAAAAUGCAGGGGUCUAAAACUGAGCGGAUAACCUCUCUAUGG RNA 2: GGGAAUGGAUCCACAUCUACGAAUUCGUACCAUAGAGAGGUUAUCUGCGCACCGAGAUCGGAAGAGCACACGU | 4.79 ± 0.35
